For this assay, the target named is human carbonic anhydrase 9 (CAIX) (human), Q16790. Kind of assay: FACS competition on HT-29 cells, competitor tracer 3BP-2776; category A = pIC50 >8.0.

Some results are limits rather than exact numbers.

For the molecule VCCEPDWLTWCC (modifications not checked) [3BP-4179], the pIC50 is more than 8 pic50.

The values above are taken from patent publication US20250339569A1, “CARBONIC ANHYDRASE IX LIGANDS” (priority 2021, published 2025).
